Data on five molecules can be found in US20120134982A1 (published 2012).

Numbering of substitutions follows the chain as printed.

In assay [1] the target is human TNFR1, soluble recombinant protein (human) (UniProt P19438). The assay can be described thus: phage ELISA on 1 nM TNFR1 coat, anti-M13-HRP; phage after 100 ug/ml trypsin 1 h RT; phage input 2.26E+10. (ELISA stands for enzyme-linked immunosorbent assay.)
Assay [2] addresses T1, TNFR1-FC fusion (human, UniProt P19438 30-211, limits assumed).
T1 construct: not shown: Fc part, not described further
T1 sequence (looked up): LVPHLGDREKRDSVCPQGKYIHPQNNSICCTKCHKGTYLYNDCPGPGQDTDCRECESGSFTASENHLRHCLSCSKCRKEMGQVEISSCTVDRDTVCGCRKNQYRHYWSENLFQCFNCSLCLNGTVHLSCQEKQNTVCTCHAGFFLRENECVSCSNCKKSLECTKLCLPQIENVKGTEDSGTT
The assay can be described thus: RBA assay (column 'Activity (nM)'); taken to be of the Fc fusion; competition with TNF-alpha.

Assay [3] has as its target T1, TNFR1-FC fusion. As to the kind of experiment: TNFR-1 receptor binding assay: inhibition of TNF-alpha binding to TNFR1; after 7 days at 50 °C, concentration assumed from 1 mg/ml.
Assay [4] deals with T1, TNFR1-FC fusion. The assay can be described thus: TNFR-1 receptor binding assay: inhibition of TNF-alpha binding to TNFR1; after 14 days at 50 °C, concentration assumed from 1 mg/ml.
The target of assay [5] is T1, TNFR1-FC fusion. As to the kind of experiment: TNFR-1 receptor binding assay: inhibition of TNF-alpha binding to TNFR1; unstressed sample (T0).
Assay [6] concerns the target T2, recombinant human VEGF (human, UniProt P15692-4 27-191, biotinylated where used on streptavidin or neutravidin surfaces).
T2 construct: also called hVEGF; VEGFA
As to the kind of experiment: RBA assay (column 'Activity (nM)'); taken to be of the Fc fusion; competitor VEGFR2-Fc.

T2 sequence (P15692 other isoform, or with tags, fused parts or gaps limits assumed): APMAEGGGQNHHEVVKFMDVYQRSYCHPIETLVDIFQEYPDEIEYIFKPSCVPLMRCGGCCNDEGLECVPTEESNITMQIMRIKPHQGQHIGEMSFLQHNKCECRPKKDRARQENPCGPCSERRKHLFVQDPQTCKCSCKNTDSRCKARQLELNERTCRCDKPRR

As to DOM1h-131, the phage ELISA signal in assay [1] was determined as 0.337.

B1: DMS1544 (DOM1h-131-206 Fc fusion) (Fc fusion)
chain: EVQLLESGGGLVQPGGSLRLSCAASGFTFAHETMVWVRQAPGKGLEWVSHIPPDGQDPFYADSVKGRFTISRDNSKNTLYLQMNSLRAEDTAVYHCALLPKRGPWFDYWGQGTLVTVSS
notes: dAb fused to human IgG1 Fc; dimeric Fc fusion format; not shown: short linker and human IgG1 Fc
For the molecule B1, the EC50 (commonly the concentration at which the effect is half-maximal) in assay [2] worked out at 47 pM.

B2: DOM1h-131-206 (other)
VH: B1 chain
notes: also called GSK1995057A
In the case of B2, the “IC50 (read off the curve)” value in assay [3] and in assay [4] was around 100 pM in each case.

B3: DOM1h-131-511 (other)
VH: B1 chain with D54V, H95Y
notes: Anti-TNFR1 domain antibody (dAb, immunoglobulin single variable domain, VH), tested as soluble monomer; also called GSK1995056A
With B3, the “IC50 (read off the curve)” value in assay [5] was around 100 pM.

B4: DMS1546 (DOM15-10 Fc fusion) (Fc fusion)
chain: DIQMTQSPSSLSASVGDRVTITCRASQWIGPELSWYQQKPGKAPKLLIYHTSILQSGVPSRFSGSGSGTDFTLTISSLQPEDFATYYCQQYMFQPRTFGQGTKVEIRR
notes: VK dAb fused to human IgG1 Fc; dimeric Fc fusion format; not shown: short linker and human IgG1 Fc
In the case of B4, in assay [6], the EC50 turned out to be 913 pM.
